The text below walks through data of patent US20240352438A1, “MEANS AND METHODS FOR DETOXIFYING OCHRATOXIN A” (DSM Austria GmbH, priority 2021, published 2024).

Residue numbers refer to the chain shown, from its start.

Sequences and labels used below:
B1: 273 (protein)
chain: MTTRTRILTAFLSLLAANACAADAAPAAPHTVVLRAARMFDGASGKLVDHPQLTIVGNKIVRIAQGDKAEVPAGAEVVDLGDATLLPGFIDAHVHLSGQSSDNWYGDFFDNMMRFPAEHALYGAYYARITLEAGFTSVRDVGSTDWVALGLRNAIDAGKVPGPRMLVSNYAVGSTGGHADQDPIPPHKLPLAGPLQGVCNGPEECRAAVRYQIKYGANVIKFMPSGGVLSLSDPVDAPELSQDEMNAVIGESHAWGRKVAAHAHGDKAAKMAVAAGVDSIEHGSFIEDDTLRAMKAKNVYLVPTISAIAHVEEKIGTFPPVIAEKGRAAAAHLRQTFRHAVQIGVPIALGTDAGVGAHGSNAREFRYMVENGLTPAQALLAGTANAARLLGTFDRVGTLEAGKLADVVAVPGNPIADITVTERPLFVMKDGVVVRRDAVR
modifications: exemplary polypeptide
B2: 300 (protein)
chain: B1 chain with H119Q, H310E, V355L
modifications: exemplary polypeptide
B3: 274 (protein)
chain: B1 chain with H119K
modifications: exemplary polypeptide
B4: 280 (protein)
chain: B1 chain with H119Q, V198T
modifications: exemplary polypeptide
B5: 303 (protein)
chain: B1 chain with H119Q, V355L, G356P
modifications: exemplary polypeptide
B6: 291 (protein)
chain: B1 chain with H119Q, I308A, G356Y
modifications: exemplary polypeptide
B7: 301 (protein)
chain: B1 chain with H119Q, V311A, V355L
modifications: exemplary polypeptide
B8: 290 (protein)
chain: B1 chain with H119Q, I308A, G356P
modifications: exemplary polypeptide
B9: 284 (protein)
chain: B1 chain with H119Q, V235F
modifications: exemplary polypeptide
B10: 294 (protein)
chain: B1 chain with H119Q, I308V, G356F
modifications: exemplary polypeptide
B11: 292 (protein)
chain: B1 chain with H119Q, L229I, I308V
modifications: exemplary polypeptide
B12: 299 (protein)
chain: B1 chain with H119Q, H310D, V355L
modifications: exemplary polypeptide
B13: 297 (protein)
chain: B1 chain with H119Q, G354A, G356V
modifications: exemplary polypeptide
B14: 288 (protein)
chain: B1 chain with H119Q, I308A, A329V
modifications: exemplary polypeptide
B15: 275 (protein)
chain: B1 chain with H119M
modifications: exemplary polypeptide
B16: 281 (protein)
chain: B1 chain with H119Q, L231F
modifications: exemplary polypeptide
B17: 285 (protein)
chain: B1 chain with H119Q, V235L
modifications: exemplary polypeptide
B18: 286 (protein)
chain: B1 chain with H119Q, L231E, V321T
modifications: exemplary polypeptide
B19: 295 (protein)
chain: B1 chain with H119Q, I308V, G356P
modifications: exemplary polypeptide
B20: 282 (protein)
chain: B1 chain with H119Q, V235A
modifications: exemplary polypeptide
B21: 296 (protein)
chain: B1 chain with H119Q, I308V, G356Y
modifications: exemplary polypeptide
B22: 289 (protein)
chain: B1 chain with H119Q, I308A, G356F
modifications: exemplary polypeptide
B23: 287 (protein)
chain: B1 chain with H119Q, L229I, I308A
modifications: exemplary polypeptide

One series in a line: Enzymatic activity comparison: activity remaining after 65° C. for 10 min at pH 6.0, relative to SEQ ID NO: 1. The format is physicochemical.
Conditions: not given
The protocol: To compare the temperature behavior and thermostability of selected enzymes to one another, enzyme was incubated at 65° C. for 10 min at pH 6.0. The enzymatic activity remaining after incubation was compared to the remaining activity of the enzyme of SEQ ID NO: 1 after incubation, the latter being set to 100%, see Table 16.
For B1, the “Enzymatic activity remaining after incubation, compared to SEQ ID NO: 1 (set to 100%)” value is reported as 34%.
Regarding B2, the “Enzymatic activity remaining after incubation, compared to SEQ ID NO: 1 (set to 100%)” value was found to be 31%.
As to B3, the “Enzymatic activity remaining after incubation, compared to SEQ ID NO: 1 (set to 100%)” value is 32%.
As to B4, the “Enzymatic activity remaining after incubation, compared to SEQ ID NO: 1 (set to 100%)” value is 31%.
Take B5: the “Enzymatic activity remaining after incubation, compared to SEQ ID NO: 1 (set to 100%)” value is 56%.
Consider B6, for which the “Enzymatic activity remaining after incubation, compared to SEQ ID NO: 1 (set to 100%)” value stood at 34%.
The same measure, in the same setting: the result for B7 reads 35%; that for B8, 53%.
Take B9: the “Enzymatic activity remaining after incubation, compared to SEQ ID NO: 1 (set to 100%)” value is reported as 13%.
Consider B10, for which the “Enzymatic activity remaining after incubation, compared to SEQ ID NO: 1 (set to 100%)” value is reported as 36%.
On to B11, for which the “Enzymatic activity remaining after incubation, compared to SEQ ID NO: 1 (set to 100%)” value is reported as 21%.
In the case of B12, the “Enzymatic activity remaining after incubation, compared to SEQ ID NO: 1 (set to 100%)” value was determined as 27%.
In the case of B13, the “Enzymatic activity remaining after incubation, compared to SEQ ID NO: 1 (set to 100%)” value stood at 32%.
Consider B14, for which the “Enzymatic activity remaining after incubation, compared to SEQ ID NO: 1 (set to 100%)” value is listed as 90%.
Regarding B15, the “Enzymatic activity remaining after incubation, compared to SEQ ID NO: 1 (set to 100%)” value came to 25%.
For the molecule B16, the “Enzymatic activity remaining after incubation, compared to SEQ ID NO: 1 (set to 100%)” value turned out to be 13%.
With B17, the “Enzymatic activity remaining after incubation, compared to SEQ ID NO: 1 (set to 100%)” value stood at 63%.
In the case of B18, the “Enzymatic activity remaining after incubation, compared to SEQ ID NO: 1 (set to 100%)” value amounted to 33%.
Consider B19, for which the “Enzymatic activity remaining after incubation, compared to SEQ ID NO: 1 (set to 100%)” value came out at 41%.
For B20, the “Enzymatic activity remaining after incubation, compared to SEQ ID NO: 1 (set to 100%)” value came out at 28%.
The same measure, in the same setting: the result for B21 reads 43%; that for B22, 63%.
For the molecule B23, the “Enzymatic activity remaining after incubation, compared to SEQ ID NO: 1 (set to 100%)” value turned out to be 28%.

A further series is described as follows: OTA detoxification activity assay (specific activity, fluorescence reduction ex/em 390/450 nm). The format is biochemical. Particulars: pH 6.0; SEQ ID NO: 1 = 100%. In short, it runs like this:
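Recombinant enzyme preparation with 200 ng/mL OTA in 100 mM sodium phosphate, at pH 6.0 and pH 7.5, 37° C. Degradation followed as the fall in fluorescence at ex/em 390/450 nm. Specific activity taken from the initial linear slope; one unit degrades 1 μmol OTA per min at a starting OTA of […].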
Turning to B1, the “Specific OTA detoxification activities in % compared to the enzyme of SEQ ID NO: 1, pH 6.0” value came out at 134%.
On to B2, for which the “Specific OTA detoxification activities in % compared to the enzyme of SEQ ID NO: 1, pH 6.0” value came to 152%.
For the molecule B3, the “Specific OTA detoxification activities in % compared to the enzyme of SEQ ID NO: 1, pH 6.0” value turned out to be 100%.
B4: the “Specific OTA detoxification activities in % compared to the enzyme of SEQ ID NO: 1, pH 6.0” value amounted to 70%.
Same read-out and setting: the result for B5 reads 167%; that for B6, 77%.
B7: the “Specific OTA detoxification activities in % compared to the enzyme of SEQ ID NO: 1, pH 6.0” value was 55%.
For the molecule B8, the “Specific OTA detoxification activities in % compared to the enzyme of SEQ ID NO: 1, pH 6.0” value came to 160%.
On to B9, for which the “Specific OTA detoxification activities in % compared to the enzyme of SEQ ID NO: 1, pH 6.0” value came out at 48%.
Turning to B10, the “Specific OTA detoxification activities in % compared to the enzyme of SEQ ID NO: 1, pH 6.0” value was determined as 31%.
Consider B11, for which the “Specific OTA detoxification activities in % compared to the enzyme of SEQ ID NO: 1, pH 6.0” value is given as 77%.
As for B12, the “Specific OTA detoxification activities in % compared to the enzyme of SEQ ID NO: 1, pH 6.0” value came out at 156%.
On to B13, for which the “Specific OTA detoxification activities in % compared to the enzyme of SEQ ID NO: 1, pH 6.0” value amounted to 182%.
Take B14: the “Specific OTA detoxification activities in % compared to the enzyme of SEQ ID NO: 1, pH 6.0” value is reported as 29%.
On the same count and under the same terms, the result for B15 reads 71%.
B16: the “Specific OTA detoxification activities in % compared to the enzyme of SEQ ID NO: 1, pH 6.0” value is 90%.
In the case of B17, the “Specific OTA detoxification activities in % compared to the enzyme of SEQ ID NO: 1, pH 6.0” value stood at 28%.
On the same count and under the same terms, then B18, with 39%; and B19, with 95%; and B20, with 77%.
B21: the “Specific OTA detoxification activities in % compared to the enzyme of SEQ ID NO: 1, pH 6.0” value is 42%.
B22: the “Specific OTA detoxification activities in % compared to the enzyme of SEQ ID NO: 1, pH 6.0” value turned out to be 66%.
As to B23, the “Specific OTA detoxification activities in % compared to the enzyme of SEQ ID NO: 1, pH 6.0” value was found to be 151%.

Staying with this series, now noted: pH 7.5; SEQ ID NO: 1 = 100%.
With B1, the “Specific OTA detoxification activities in % compared to the enzyme of SEQ ID NO: 1, pH 7.5” value came to 76%.
On to B2, for which the “Specific OTA detoxification activities in % compared to the enzyme of SEQ ID NO: 1, pH 7.5” value came out at 103%.
As to B3, the “Specific OTA detoxification activities in % compared to the enzyme of SEQ ID NO: 1, pH 7.5” value was 100%.
For B4, the “Specific OTA detoxification activities in % compared to the enzyme of SEQ ID NO: 1, pH 7.5” value came out at 50%.
Take B5: the “Specific OTA detoxification activities in % compared to the enzyme of SEQ ID NO: 1, pH 7.5” value was found to be 110%.
On the same count and under the same terms, then B6, with 79%; and B7, with 43%; and B8, with 122%.
As for B9, the “Specific OTA detoxification activities in % compared to the enzyme of SEQ ID NO: 1, pH 7.5” value was 23%.
Regarding B10, the “Specific OTA detoxification activities in % compared to the enzyme of SEQ ID NO: 1, pH 7.5” value is recorded as 42%.
Turning to B11, the “Specific OTA detoxification activities in % compared to the enzyme of SEQ ID NO: 1, pH 7.5” value was 81%.
Still for that read-out and setting: then B12, with 95%; and B13, with 106%.
With B14, the “Specific OTA detoxification activities in % compared to the enzyme of SEQ ID NO: 1, pH 7.5” value was 31%.
Take B15: the “Specific OTA detoxification activities in % compared to the enzyme of SEQ ID NO: 1, pH 7.5” value turned out to be 85%.
As for B16, the “Specific OTA detoxification activities in % compared to the enzyme of SEQ ID NO: 1, pH 7.5” value is 50%.
Consider B17, for which the “Specific OTA detoxification activities in % compared to the enzyme of SEQ ID NO: 1, pH 7.5” value came to 21%.
B18: the “Specific OTA detoxification activities in % compared to the enzyme of SEQ ID NO: 1, pH 7.5” value was found to be 17%.
With B19, the “Specific OTA detoxification activities in % compared to the enzyme of SEQ ID NO: 1, pH 7.5” value was found to be 110%.
With B20, the “Specific OTA detoxification activities in % compared to the enzyme of SEQ ID NO: 1, pH 7.5” value was 41%.
Take B21: the “Specific OTA detoxification activities in % compared to the enzyme of SEQ ID NO: 1, pH 7.5” value amounted to 38%.
Turning to B22, the “Specific OTA detoxification activities in % compared to the enzyme of SEQ ID NO: 1, pH 7.5” value worked out at 106%.
Regarding B23, the “Specific OTA detoxification activities in % compared to the enzyme of SEQ ID NO: 1, pH 7.5” value was 105%.
